Consider 2 molecules from paper PMC10322149.

Assay [1] concerns the target T1, Homer3, Q9NSC5.
T1 chain: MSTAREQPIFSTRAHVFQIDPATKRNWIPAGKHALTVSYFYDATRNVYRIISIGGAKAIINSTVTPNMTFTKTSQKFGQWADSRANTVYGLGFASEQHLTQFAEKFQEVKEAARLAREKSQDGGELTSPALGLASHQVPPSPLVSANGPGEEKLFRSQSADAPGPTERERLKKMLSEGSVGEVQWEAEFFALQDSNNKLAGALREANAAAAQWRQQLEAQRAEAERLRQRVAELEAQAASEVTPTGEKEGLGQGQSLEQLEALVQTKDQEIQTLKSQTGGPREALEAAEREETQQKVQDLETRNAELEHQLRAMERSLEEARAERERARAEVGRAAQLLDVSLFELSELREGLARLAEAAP
Description: SEC-MALS; FPLC coupled with static light scattering; Superose 12 10/300 GL; 50 mM Tris pH 8.0, 100 mM NaCl, 1 mM EDTA, 1 mM DTT; Homer3 and Pi-Homer3 at 50 μM. The following applies: remark: other sources report otherwise. For orientation: In gel filtration, larger molecules generally elute earlier.

For assay [2], the target named is T2, Pi-Homer3 (Homer3 phosphorylated by CaMKIIα), Q9NSC5.
T2 chain: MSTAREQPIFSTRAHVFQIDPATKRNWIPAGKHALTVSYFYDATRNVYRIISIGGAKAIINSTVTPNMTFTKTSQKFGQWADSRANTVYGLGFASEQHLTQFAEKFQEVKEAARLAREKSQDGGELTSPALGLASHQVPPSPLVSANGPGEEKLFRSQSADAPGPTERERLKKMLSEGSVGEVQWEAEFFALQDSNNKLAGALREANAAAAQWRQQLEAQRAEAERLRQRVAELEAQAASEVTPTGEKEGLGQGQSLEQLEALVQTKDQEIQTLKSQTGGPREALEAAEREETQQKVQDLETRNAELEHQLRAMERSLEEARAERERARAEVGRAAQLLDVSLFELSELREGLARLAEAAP
Described as above. Particulars: remark: other sources report otherwise.

B1: Homer3, Q9NSC5 1-361 (natural protein)
chain: MSTAREQPIFSTRAHVFQIDPATKRNWIPAGKHALTVSYFYDATRNVYRIISIGGAKAIINSTVTPNMTFTKTSQKFGQWADSRANTVYGLGFASEQHLTQFAEKFQEVKEAARLAREKSQDGGELTSPALGLASHQVPPSPLVSANGPGEEKLFRSQSADAPGPTERERLKKMLSEGSVGEVQWEAEFFALQDSNNKLAGALREANAAAAQWRQQLEAQRAEAERLRQRVAELEAQAASEVTPTGEKEGLGQGQSLEQLEALVQTKDQEIQTLKSQTGGPREALEAAEREETQQKVQDLETRNAELEHQLRAMERSLEEARAERERARAEVGRAAQLLDVSLFELSELREGLARLAEAAP
The term stoichiometry N denotes the number of molecules, sites or subunits per partner or assembly. In assay [1], B1 displayed a stoichiometry N of 4.

B2: Pi-Homer3 (Homer3 phosphorylated by CaMKIIα), Q9NSC5 1-361 (natural protein)
chain: MSTAREQPIFSTRAHVFQIDPATKRNWIPAGKHALTVSYFYDATRNVYRIISIGGAKAIINSTVTPNMTFTKTSQKFGQWADSRANTVYGLGFASEQHLTQFAEKFQEVKEAARLAREKSQDGGELTSPALGLASHQVPPSPLVSANGPGEEKLFRSQSADAPGPTERERLKKMLSEGSVGEVQWEAEFFALQDSNNKLAGALREANAAAAQWRQQLEAQRAEAERLRQRVAELEAQAASEVTPTGEKEGLGQGQSLEQLEALVQTKDQEIQTLKSQTGGPREALEAAEREETQQKVQDLETRNAELEHQLRAMERSLEEARAERERARAEVGRAAQLLDVSLFELSELREGLARLAEAAP
modifications: here or on the partner: phosphorylated by CaMKIIα at Ser residues in the central linker region (positions not given); phosphorylated by CaMKIIα at Ser residues in the central linker region (positions not given)
In the case of B2, in assay [2], the stoichiometry N turned out to be 4.
